Source: patent US20260062488A1

What was measured:
[1] = molecular target: human α4β7 integrin (human) (UniProt P13612); assay: FACS titration on BaF3-hα4β7
[2] = molecular target: cynomolgus αEβ7 integrin (cynomolgus monkey); assay: FACS, 1 µg/ml, BaF3-cαEβ7 cells
[3] = molecular target: human α4β7 integrin (human) (UniProt P13612); assay: FACS, 1 µg/ml, BaF3-hα4β7 cells
[4] = molecular target: human αEβ7 integrin (human) (UniProt P38570); assay: FACS, 1 µg/ml, BaF3-hαEβ7 cells
[5] = molecular target: cynomolgus α4β7 integrin (cynomolgus monkey); assay: FACS, 1 µg/ml, CHOK1-cα4β7 cells
[6] = molecular target: human α4β1 integrin (human) (UniProt P05556); assay: FACS, 1 µg/ml, CHOK1-hα4β1 cells
[7] = molecular target: mouse α4β7 integrin (mouse) (UniProt Q00651); assay: FACS, 1 µg/ml, CHOK1-mα4β7 cells
Sequence of mouse α4β7 integrin (mouse) (Q00651 41-1039, chain 1 of 2): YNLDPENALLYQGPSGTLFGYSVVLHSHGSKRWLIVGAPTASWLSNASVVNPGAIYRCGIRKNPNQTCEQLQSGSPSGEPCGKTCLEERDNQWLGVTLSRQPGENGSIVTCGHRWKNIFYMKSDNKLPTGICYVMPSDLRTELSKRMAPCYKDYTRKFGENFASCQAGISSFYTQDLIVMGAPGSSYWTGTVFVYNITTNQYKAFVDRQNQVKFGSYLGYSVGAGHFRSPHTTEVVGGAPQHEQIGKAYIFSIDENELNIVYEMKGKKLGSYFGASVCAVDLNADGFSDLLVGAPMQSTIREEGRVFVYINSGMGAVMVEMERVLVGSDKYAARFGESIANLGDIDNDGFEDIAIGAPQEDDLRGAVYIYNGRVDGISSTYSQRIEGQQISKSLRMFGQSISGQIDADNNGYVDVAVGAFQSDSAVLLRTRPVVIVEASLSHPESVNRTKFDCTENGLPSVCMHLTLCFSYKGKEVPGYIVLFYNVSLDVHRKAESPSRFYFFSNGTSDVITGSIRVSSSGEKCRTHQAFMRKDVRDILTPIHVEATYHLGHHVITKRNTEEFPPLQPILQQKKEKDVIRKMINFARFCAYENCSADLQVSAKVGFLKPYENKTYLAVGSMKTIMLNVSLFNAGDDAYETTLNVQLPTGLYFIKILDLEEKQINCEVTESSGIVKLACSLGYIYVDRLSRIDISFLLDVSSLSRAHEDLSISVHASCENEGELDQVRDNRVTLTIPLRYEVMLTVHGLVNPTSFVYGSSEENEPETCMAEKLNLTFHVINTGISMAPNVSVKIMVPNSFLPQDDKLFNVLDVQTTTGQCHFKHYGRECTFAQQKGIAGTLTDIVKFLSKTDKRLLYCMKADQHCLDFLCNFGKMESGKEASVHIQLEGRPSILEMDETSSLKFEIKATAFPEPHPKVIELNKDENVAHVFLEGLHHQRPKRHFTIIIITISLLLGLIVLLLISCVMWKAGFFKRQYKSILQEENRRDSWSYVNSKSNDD
Sequence of mouse α4β7 integrin (mouse) (P26011 20-806, chain 2 of 2, further chain): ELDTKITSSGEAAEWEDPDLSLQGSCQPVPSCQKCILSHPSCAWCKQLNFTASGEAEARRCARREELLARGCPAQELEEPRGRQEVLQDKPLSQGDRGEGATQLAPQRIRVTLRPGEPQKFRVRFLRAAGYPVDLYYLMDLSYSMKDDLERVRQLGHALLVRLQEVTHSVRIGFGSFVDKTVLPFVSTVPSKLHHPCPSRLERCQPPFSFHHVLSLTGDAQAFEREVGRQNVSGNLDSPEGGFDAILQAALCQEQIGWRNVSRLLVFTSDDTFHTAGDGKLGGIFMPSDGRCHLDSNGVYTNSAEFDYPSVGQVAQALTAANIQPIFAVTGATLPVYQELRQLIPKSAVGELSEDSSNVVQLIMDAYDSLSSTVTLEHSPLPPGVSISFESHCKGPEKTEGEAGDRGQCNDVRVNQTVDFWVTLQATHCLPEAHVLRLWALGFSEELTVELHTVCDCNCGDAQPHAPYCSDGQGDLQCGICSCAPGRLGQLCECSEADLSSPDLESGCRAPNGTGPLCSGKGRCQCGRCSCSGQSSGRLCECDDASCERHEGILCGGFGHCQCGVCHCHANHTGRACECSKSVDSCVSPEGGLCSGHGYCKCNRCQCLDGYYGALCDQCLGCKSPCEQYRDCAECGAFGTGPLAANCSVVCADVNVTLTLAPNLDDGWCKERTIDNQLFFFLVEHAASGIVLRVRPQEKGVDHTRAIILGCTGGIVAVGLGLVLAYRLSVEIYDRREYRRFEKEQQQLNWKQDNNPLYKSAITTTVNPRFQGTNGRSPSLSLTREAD

[8] = molecular target: human α4β7 integrin (human) (UniProt P13612); assay: FACS, primary human CD4+ memory T cells
[9] = molecular target: human α4β7 integrin (human) (UniProt P13612); assay: blockade of HuT78 cell adhesion to MAdCAM-1
[10] = molecular target: cynomolgus α4β7 integrin (cynomolgus monkey); assay: blockade of CHOK1/cα4β7 adhesion to MAdCAM-1
[11] = molecular target: cynomolgus α4β7 integrin (cynomolgus monkey); assay: blockade of CHOK1-cα4β7 cell adhesion to MAdCAM-1
[12] = molecular target: human α4β7 integrin (human) (UniProt P13612); assay: competitive FACS, 50x excess of non-labelled competitor Ab-m1
[13] = molecular target: human α4β7 integrin (human) (UniProt P13612); assay: competitive FACS, 50x excess of non-labelled competitor Ab-Abri
[14] = molecular target: human α4β7 integrin (human) (UniProt P13612); assay: competitive FACS, 50x excess of non-labelled competitor Ab-Etro
[15] = molecular target: human α4β7 integrin (human) (UniProt P13612); assay: competitive FACS, 50x excess of non-labelled competitor Ab-Vedo
[16] = molecular target: human α4β7 integrin (human) (UniProt P13612); assay: row IC50 (pM) HuT78 of the binning table (assay not explained, presumably adhesion to MAdCAM-1)
[17] = molecular target: human α4β7 integrin (human) (UniProt P13612); assay: blockade of HuT78 adhesion to coated VCAM-1 hFc, experiment 1
[18] = molecular target: human α4β7 integrin (human) (UniProt P13612); assay: blockade of HuT78 adhesion to coated VCAM-1 hFc, experiment 2
[19] = molecular target: human α4β7 integrin (human) (UniProt P13612); assay: blockade of HuT78 adhesion to coated VCAM-1 hFc, experiment 3
[20] = molecular target: human α4β7 integrin (human) (UniProt P13612); assay: blockade of HuT78 adhesion to coated VCAM-1 hFc, average N = 3

Row | Binder | EC50 [1] [nM] | Max MFI [1] [MFI] | FACS MFI [2] [MFI] | FACS MFI [3] [MFI] | FACS MFI [4] [MFI] | FACS MFI [5] [MFI] | FACS MFI [6] [MFI] | FACS MFI [7] [MFI] | EC50 [8] [nM] | IC50 [9] [nM] | Max inhibition (%) [9] [%] | IC50 [10] [nM] | IC50 [11] [nM] | Max inhibition (%) [11] [%] | percentage of binding inhibition [12] [%] | percentage of binding inhibition [13] [%] | percentage of binding inhibition [14] [%] | percentage of binding inhibition [15] [%] | IC50 [16] [nM] | also measured
1 | Ab-Etro (antibody, INN chains, looked up, V domains shown, IgG1 Alexa488 conjugate) VH: EVQLVESGGGLVQPGGSLRLSCAASGFFITNNYWGWVRQAPGKGLEWVGYISYSGSTSYNPSLKSRFTISRDTSKNTFYLQMNSLRAEDTAVYYCARTGSSGYFDFWGQGTLVTVSS VL: DIQMTQSPSSLSASVGDRVTITCRASESVDDLLHWYQQKPGKAPKLLIKYASQSISGVPSRFSGSGSGTDFTLTISSLQPEDFATYYCQQGNSLPNTFGQGTKVEIK | 0.705 | 951 | 247 | 440 | 73.2 | 97.2 | 4.53 | 92.2 | 0.0054 | 0.0178 | 104 | 0.0499 | 0.241 | 91.5 | -1 | 60 | 93 | 6 | 0.0178 | 
2 | Ab-Abri (antibody, INN chains, looked up, V domains shown, IgG2 Alexa488 conjugate) VH: QVQLVQSGAEVKKPGASVKVSCKVSGYTLSDLSIHWVRQAPGKGLEWMGGFDPQDGETIYAQKFQGRVTMTEDTSTDTAYMELSSLKSEDTAVYYCATGSSSSWFDPWGQGTLVTVSS VL: DIQMTQSPSSVSASVGDRVTITCRASQGISSWLAWYQQKPGKAPKLLIYGASNLESGVPSRFSGSGSGTDFTLTISSLQPEDFANYYCQQANSFPWTFGQGTKVEIK | 0.679 | 775 | 68.3 | 624 | 9.81 | 89.8 | 4.25 | 2.87 | 0.0049 | 0.0129 | 103 | 0.0509 | 0.0994 | 95.9 | 73 | 89 | 80 | 88 | 0.0129 | 
3 | Ab-Nata (antibody, INN chains, looked up, V domains shown) VH: QVQLVQSGAEVKKPGASVKVSCKASGFNIKDTYIHWVRQAPGQRLEWMGRIDPANGYTKYDPKFQGRVTITADTSASTAYMELSSLRSEDTAVYYCAREGYYGNYGVYAMDYWGQGTLVTVSS VL: DIQMTQSPSSLSASVGDRVTITCKTSQDINKYMAWYQQTPGKAPRLLIHYTSALQPGIPSRFSGSGSGRDYTFTISSLQPEDIATYYCLQYDNLWTFGQGTKVEIKR |  |  |  |  |  |  |  |  |  |  |  |  |  |  |  |  |  |  |  | IC50 [17]: 0.038 nM; IC50 [18]: 0.054 nM; IC50 [19]: 0.077 nM; IC50 [20]: 0.056 nM
